Measured values published in paper PMC10325834, “Characteristics of Mycobacterium tuberculosis PtpA interaction and activity on the alpha subunit of human mitochondrial trifunctional protein, a key enzyme of lipid metabolism” (Frontiers in Cellular and Infection Microbiology, 2023).

B1: recombinant alpha subunit of human mitochondrial trifunctional protein, wild type (enzyme)
chain: not shown
notes: also called hTFPα; hTFPα-wt; source: E. coli BL21 (DE3), purified (Ni-NTA, SEC on Superdex 200)
B2: recombinant alpha subunit of human mitochondrial trifunctional protein, Y271F mutant (enzyme)
chain: not shown
notes: also called hTFPα-Y271F; source: E. coli BL21 (DE3), purified (Ni-NTA, TEV cleavage, SEC)

Target: the molecule itself
Assay: SEC; Superdex 200 16/60 preparative grade; 50 mM Tris-HCl pH 8.0, 100 mM NaCl, 5% glycerol, 0.1% Tween 20; apparent molecular weight from a calibration curve

| Protein | stoichiometry N |
| --- | --- |
| B1 | 2 |
| B2 | 2 |
